# B1: Hammerhead Ribozyme (parent)
# chain: ACCGGAUGUGCUUUCCGGUCUGAUGAGUCCGUGAGGACGAAACAG
# Variants of: B1
# Assay: self-cleavage, relative activity (ratio to wild type); higher = more cleavage; co-transcriptional
row,Variant,self-cleavage
1,ACCGGAUGUGCCUUCCGGUCUGAUGAGUCCAUGAGGACGAAACAG [U12C G31A],0.871
2,ACCGGAUGUGCUUUCCGGUCAGAUGAGUCCGUUAGGACGAAACAG [U21A G33U],0.55
3,ACCGGAUGUGCUUUCCGGUCUGAUGACCCCGUGAGGACGAAACAG [G27C U28C],0.431
4,ACCGGAUGUGCUUUCCGGUCUGAUGAGUCCGUGACGACGAAAAAG [G35C C43A],0.352
5,AUCGGAUGUGCUUUCCGGUGUGAUGAGUCCGUGAGGACGAAACAG [C2U C20G],0.37
6,ACCGGAUGUGCGUUCCGGUCUGAUGAGUCCGUGAAGACGAAACAG [U12G G35A],0.674
7,ACCGGAUGUGCUUUCCGGUCUGAUGAGUCUGUGACGACGAAACAG [C30U G35C],0.758
8,ACCGGAUGUGCUUUCCCGUCUGAUGAUUCCGUGAGGACGAAACAG [G17C G27U],0.349
9,ACCGGAUGUGCUCUCCGGUCUGAUGAGUCCGUGAGGACGAAUCAG [U13C A42U],0.327
10,ACCGGAUGUGCUUUCCGGUCGGAUGAGUACGUGAGGACGAAACAG [U21G C29A],0.3
11,ACCGGAUGUGCUUUCCGGUCUGAUGCGUGCGUGAGGACGAAACAG [A26C C29G],0.303
12,ACCGGGUGGGCUUUCCGGUCUGAUGAGUCCGUGAGGACGAAACAG [A6G U9G],1.09
13,GCCGGAUGUGCUUUCCGGUCUGAUGAGUCCGUGACGACGAAACAG [A1G G35C],1.04
14,ACCGGUUUUGCUUUCCGGUCUGAUGAGUCCGUGAGGACGAAACAG [A6U G8U],0.489
15,ACCGGAUGUGCCUUCCGGUCUGAUCAGUCCGUGAGGACGAAACAG [U12C G25C],0.354
16,ACCUGAUGUGCUUUCCGGUCUGAUGAGUCCGUGAGGACGAAACGG [G4U A44G],0.789
17,ACCGGAUGUGGUUUCCGGUCUGAUGAGUCCGUGAGGACGAACCAG [C11G A42C],0.422
18,ACCGGAUGUUCUUUCCGGUCUGAUGUGUCCGUGAGGACGAAACAG [G10U A26U],0.873
19,ACCGGAUGUGCUUUCCGGCCUGAUGAGUUCGUGAGGACGAAACAG [U19C C29U],0.491

row,Variant,self-cleavage
1,ACCGGAUGUGCUUUUCGGUCUGAGGAGUCCGUGAGGACGAAACAG [C15U U24G],1.35
2,ACCGGAUGUGCAUUCCGGUCUGAUGAGACCGUGAGGACGAAACAG [U12A U28A],0.873
3,ACCGGAUGUGCUUUCCGGUCUUAUGAGUCCGUGAGAACGAAACAG [G22U G36A],0.316
4,CCCGGAUGUGCUUUCCGGUCUUAUGAGUCCGUGAGGACGAAACAG [A1C G22U],0.466
5,AGCGGAUGUGCUUUCCGGUCUGAUGAGACCGUGAGGACGAAACAG [C2G U28A],0.37
6,ACCGUAUGAGCUUUCCGGUCUGAUGAGUCCGUGAGGACGAAACAG [G5U U9A],0.723
7,ACCGGAUGCGCGUUCCGGUCUGAUGAGUCCGUGAGGACGAAACAG [U9C U12G],1.1
8,ACCGGAUGUUCUUUCCGGUCUGAUGAGUCCGUGAGGACGAAACUG [G10U A44U],0.686
9,ACCGGAUGUUCUUUCCGGUCUGAUGAGUCCGUGAGGACGAAACCG [G10U A44C],0.534
10,ACCGGAUGUGCUGUCCGGUCUGAUUAGUCCGUGAGGACGAAACAG [U13G G25U],0.303
11,ACCGGAUGUGCGUUCCGGUCUGAAGAGUCCGUGAGGACGAAACAG [U12G U24A],1.13
12,ACCGGAUGUGCUUUCCGGUCCGAUCAGUCCGUGAGGACGAAACAG [U21C G25C],0.308
13,ACCGGAUGUGCUUUCCGGUAUGUUGAGUCCGUGAGGACGAAACAG [C20A A23U],0.36
14,ACCGGAUGUGCUUUCCGGUCUGAUGCGUCCGUGAGGACGAAGCAG [A26C A42G],0.371
15,ACCGGAUGUGCUUUCCGGUCCGAUGAGCCCGUGAGGACGAAACAG [U21C U28C],0.977
16,ACCCGAUGUGCUUUUCGGUCUGAUGAGUCCGUGAGGACGAAACAG [G4C C15U],0.557
17,ACCGGAUGUGCUUUCCGGUCUGAUGAGUGCGUGAGGACCAAACAG [C29G G39C],0.317
18,ACCGGGUGUGCUAUCCGGUCUGAUGAGUCCGUGAGGACGAAACAG [A6G U13A],0.842
19,UCCGGAUGUGCUUUCCGGUCUGAUGAGUCCGCGAGGACGAAACAG [A1U U32C],0.436

row,Variant,self-cleavage
1,ACCGGAUGUGCUUUCCGUUCUGAUGAGUCCGUGAGGACGAAAGAG [G18U C43G],0.373
2,CCCGGAUGUGCUUUCCGGUCUGAUGAGUCCGUGGGGACGAAACAG [A1C A34G],0.385
3,AACGGAUGUGCUUUCCGGUCUAAUGAGUCCGUGAGGACGAAACAG [C2A G22A],0.364
4,ACCGGAUGUGCUUUUCGGUCUGAUCAGUCCGUGAGGACGAAACAG [C15U G25C],0.314
5,ACCGGAUGUGAUUUCCGGUCUGAUGAGUCCGAGAGGACGAAACAG [C11A U32A],1.4
6,ACCGGAUGUGCUUUCCGGGCUGAUGAGUCCGUUAGGACGAAACAG [U19G G33U],0.411
7,ACCGGAUGUGUUUUCCGGUCUGAUGAGUCCGUGAGGACGAAACAG [C11U],1.02
8,ACCGGAUGUGUUUUCCGAUCUGAUGAGUCCGUGAGGACGAAACAG [C11U G18A],0.428
9,ACCGGAUGUGCUUUCCGGUCUGAUUAGUCCGUGAGGACGGAACAG [G25U A40G],0.328
10,ACCGGAUGUGCUUUCCGGUCUGAUGAGUGCGUGAGGACGAAACAG [C29G],0.766
11,ACCGGAUGUGCUUUCCGGUCUCAUGAGUCGGUGAGGACGAAACAG [G22C C30G],0.351
12,ACGGGAUGAGCUUUCCGGUCUGAUGAGUCCGUGAGGACGAAACAG [C3G U9A],0.411
13,ACCGGGUGUGCUUUCCGGUCUGAAGAGUCCGUGAGGACGAAACAG [A6G U24A],0.597
14,ACCGGAUGUGCUUUCCGGUCUGAUCAGUCCGUGAGGAUGAAACAG [G25C C38U],0.22
15,ACCGGAUGUGCUUUCCGGUCUGAUGAGUCCGUUAGGACGAAACUG [G33U A44U],0.87
16,ACCGGAUGUCCUUUCCGGUCGGAUGAGUCCGUGAGGACGAAACAG [G10C U21G],0.414
17,ACCGCAUGUGCUUUCCGGUCUGAUGAGUCAGUGAGGACGAAACAG [G5C C30A],0.623
18,ACCGGAUGUGCGCUCCGGUCUGAUGAGUCCGUGAGGACGAAACAG [U12G U13C],0.879
19,ACCGGAUGUGCUUUCCGGUCUGAUGAGUCCGUGAGGACGACAGAG [A41C C43G],0.408

# Source: the RNAGym collection of RNA variant scans (doi:10.7554/elife.80360)
